The values that follow come from patent US20240026443A1 (University of Washington, published 2024).

The target in the assay is T1, DddA (intact deaminase domain of the bacterial toxin-derived double stranded DNA cytosine deaminase) (Burkholderia cenocepacia (strain H111), UniProt P0DUH5 1290-1427, limits assumed).
T1 construct: also called double stranded DNA deaminase
T1 sequence: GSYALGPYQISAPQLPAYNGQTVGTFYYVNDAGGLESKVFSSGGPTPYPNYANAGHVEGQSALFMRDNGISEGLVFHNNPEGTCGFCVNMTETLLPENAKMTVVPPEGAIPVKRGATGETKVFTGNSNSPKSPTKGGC
Briefly: X-ray crystal structure of the complex.

B1: double stranded DNA deaminase A immunity (DddAI) protein (other)
chain: MYADDFDGEIEIDEVDSLVEFLSRRPAFDANNFVLTFEESGFPQLNIFAKNDIAVVYYMDIGENFVSKGNSASGGTEKFYENKLGGEVDLSKDCVVSKEQMIEAAKQFFATKQRPEQLTWSEL
notes: Expressed inside P. aeruginosa from an arabinose-inducible promoter at the Tn7 attachment site; also called DddIA; DddA cognate immunity determinant
As for B1, the binding result was “binds”.
